Data taken from the supplement of paper PMC7877785.
± gives the uncertainty stated by the source.

Experiment: self-splicing fitness, log relative to wild type (ln ratio); higher = more splicing; Tetrahymena group I intron in knt gene, E. coli kanamycin selection, DiMSum; sequences stand for … in CUCUCU…GGAGGGAAAAGUUAUCAGGCAUGCACCUGGUAGCUAGUCUUUAAACCAAUAGAUUGCAUCGGUUUAAAAGGCAAGACCGUCAAAUUGCGGGAAAGGGGUCAACAGCCGUUCAGUACCAAGUCUCAGGGGAAACUUUGAGAUGGCCUUGCAAAGGGUAUGGUAAUAAGCUGACGGACAUGGUCCUAACCACGCAGCCAAGUCCUAAGUCAACAGAUCUUCUGUUGAUAUGGAUGCAGUUCACAGACUAAAUGUCGGUCGGGGAAGAUGUAUUCUUCUCAUAAGAUAUAGUCGGACCUCUCCUUAAUGGGAGCUAGCGGAUGAAGUGAUGCAACACUGGAGCCGCUGGGAACUAAUUUGUAUGCGAAAGUAUAUUGAUUAGUUUUGGAGUACUCGUGGUCG
Method in brief: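 A randomised library covering all eight P1ex-region intron nucleotides was built with the intron in the knt kanamycin-resistance gene on pET-22b(+) and held in E. coli BL21(DE3). Cells were grown overnight at 37°C or 30°C on LB agar, with or without 25 μg/mL kanamycin, plus 100 μg/mL carbenicillin, 50 μM IPTG and 0.2% rhamnose, and pooled colonies were amplicon-sequenced on an Illumina HiSeq 2500. DiMSum fitness is the error-weighted combination of wild-type-normalised replicate fold changes, kanamycin versus none.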

| Sequence | self-splicing fitness (ln) (30 °C) | self-splicing fitness (ln) (37 °C) |
| --- | --- | --- |
| AAUCAGCAAUAUUACGCAUU | -1.1 ± 0.072 | -0.498 ± 0.086 |
| AAUCAGCAAUAUUACGCCCU | 0.314 ± 0.099 | 0.0253 ± 0.12 |
| AAUCAGCAAUAUUACGGAAG | -1.75 ± 0.11 | -0.948 ± 0.12 |
| AAUCAGCAAUAUUACGGAUC | -0.358 ± 0.073 | 0.17 ± 0.1 |
| AAUCAGCAAUAUUACGGCCC | -0.563 ± 0.18 | 0.491 ± 0.2 |
| AAUCAGCAAUAUUACGGCCU | 0.091 ± 0.13 | 0.245 ± 0.15 |
| AAUCAGCAAUAUUACGGGAC | -3.57 ± 0.18 | -1.4 ± 0.096 |
| AAUCAGCAAUAUUACGGGCC | -3.19 ± 0.44 | -2.58 ± 0.28 |
| AAUCAGCAAUAUUACGGGCU | -2.04 ± 0.081 | -1.22 ± 0.094 |
| AAUCAGCAAUAUUACGGGGC | -3.92 ± 0.33 | -2.58 ± 0.29 |
| AAUCAGCAAUAUUACGGUAC | -0.714 ± 0.082 | -0.852 ± 0.1 |
| AAUCAGCAAUAUUACGUACC | -0.557 ± 0.16 | -0.29 ± 0.18 |
| AAUCAGCAAUAUUACGUGAG | -0.184 ± 0.047 | 0.612 ± 0.077 |
| AAUCAGCAAUAUUACGUGGU | -1.65 ± 0.088 | -0.981 ± 0.11 |
| AAUCAGCAAUAUUACGUUGG | -2.06 ± 0.1 | -1 ± 0.1 |
| AAUGAGCAAUAUUACGAACA | -1.5 ± 0.45 | -1.2 ± 0.48 |
| AAUGAGCAAUAUUACGACAA | -3.01 ± 0.27 | -1.93 ± 0.25 |
| AAUGAGCAAUAUUACGAUUA | -2.57 ± 0.11 | -1.37 ± 0.1 |
| AAUGAGCAAUAUUACGAUUC | -3.1 ± 0.26 | -2.43 ± 0.26 |
| AAUGAGCAAUAUUACGCAGA | -2.8 ± 0.27 | -1.56 ± 0.25 |
| AAUGAGCAAUAUUACGCCUG | -3.5 ± 0.2 | -2.85 ± 0.26 |
| AAUGAGCAAUAUUACGCUGC |  | -1.24 ± 0.24 |
| AAUGAGCAAUAUUACGGCAA | -2.55 ± 0.34 | -1.85 ± 0.35 |
| AAUGAGCAAUAUUACGGGAU | -4.32 ± 0.28 | -3.09 ± 0.29 |
| AAUGAGCAAUAUUACGGGCC |  | -1.76 ± 0.39 |

| Sequence | self-splicing fitness (ln) (30 °C) | self-splicing fitness (ln) (37 °C) |
| --- | --- | --- |
| AAUGAGCAAUAUUACGGUAU |  | -1.81 ± 0.19 |
| AAUGAGCAAUAUUACGGUGA | -3.31 ± 0.27 | -2.26 ± 0.42 |
| AAUGAGCAAUAUUACGGUUG | -2.99 ± 0.13 | -2.81 ± 0.19 |
| AAUGAGCAAUAUUACGUAAG | -2.38 ± 0.22 | -2.2 ± 0.23 |
| AAUGAGCAAUAUUACGUACU | -0.657 ± 0.12 | -0.978 ± 0.16 |
| AAUGAGCAAUAUUACGUCUA | -2.27 ± 0.24 | -1.59 ± 0.18 |
| AAUGAGCAAUAUUACGUCUU | 0.00922 ± 0.083 | -0.0903 ± 0.096 |
| AAUGAGCAAUAUUACGUGUU | -4.51 ± 0.23 | -2.85 ± 0.22 |
| AAUGAGCAAUAUUACGUUAA | -2.76 ± 0.18 | -1.72 ± 0.17 |
| AAUGAGCAAUAUUACGUUGU | -3.73 ± 0.14 | -2.89 ± 0.16 |
| AAUUAGCAAUAUUACGAAAA | -2.54 ± 0.24 | -0.586 ± 0.19 |
| AAUUAGCAAUAUUACGAAGC | -1.94 ± 0.27 |  |
| AAUUAGCAAUAUUACGAAGG | -2.79 ± 0.23 | -1.88 ± 0.35 |
| AAUUAGCAAUAUUACGAUGU | -0.358 ± 0.078 | 0.171 ± 0.11 |
| AAUUAGCAAUAUUACGAUUU | -0.494 ± 0.11 | -0.268 ± 0.13 |
| AAUUAGCAAUAUUACGCAGC | -3.15 ± 0.48 | -2.21 ± 0.27 |
| AAUUAGCAAUAUUACGCGCA | -0.118 ± 0.11 | 0.114 ± 0.15 |
| AAUUAGCAAUAUUACGCGCG | -1.62 ± 0.17 | -0.951 ± 0.18 |
| AAUUAGCAAUAUUACGCUUU | -3.27 ± 0.23 | -1.01 ± 0.14 |
| AAUUAGCAAUAUUACGGCAA | -0.926 ± 0.14 | -0.497 ± 0.18 |
| AAUUAGCAAUAUUACGGCAU | 0.0829 ± 0.11 | 0.351 ± 0.11 |
| AAUUAGCAAUAUUACGGCUA | -0.905 ± 0.17 | -0.685 ± 0.22 |
| AAUUAGCAAUAUUACGGGCG | -0.93 ± 0.12 | -1.36 ± 0.13 |
| AAUUAGCAAUAUUACGGGGU | -2.06 ± 0.2 | -2.02 ± 0.32 |
